Experimental data from patent US10100120B2, “Antibody which specifically binds to human CRTH2” (KYOWA HAKKO KIRIN CO., LTD, priority 2015, dated 2018).

Legend:
[1] = test system: human eosinophils; assay: Agonist, antagonist and ligand-induced signal enhancing activity using shape change of human eosinophils (Example 21); type: cell-based; conditions: antibody 10 μg/mL, FIG. 18
Protocol: Eosinophils were separated from human peripheral blood in the same manner as in Example 11. In this case, the step of adding the same amount of physiological saline for injection as the blood to the blood was omitted and the […] on Ficoll-Paque PREMIUM 1.084 (GE Healthcare). The isolated human eosinophils were suspended with D-PBS (−) (NACALAI TESQUE, Inc.) and a reaction was performed in a 5% CO2 incubator at 37° C. for 1 hour and 30 minutes.
Thereafter, the cells were seeded in a 96-well plate at 0.7×10^5 cells/well using 10% FBS-containing RPMI1640. Next, an isotype control antibody, the humanized Lym2 antibody LV0HV1, the anti-human CRTH2 antibody hu19A2 v52, ch8B1, ch3C12, or ch31A5 prepared in Example 9, or the commercially available anti-human CRTH2 antibody BM16 (Santa Cruz Biotechnology), or 301108 (R&D) was added thereto at a final concentration of 10 μg/mL to cause a reaction in a 5% CO2 incubator at 37° C. for 30 minutes. […]
Next, RPMI1640 containing either DKPGD2 (Cayman Chemical) or 10% FBS—was added thereto at a final concentration of 100 nM to cause a reaction in a 5% CO2 incubator at 37° C. for 60 minutes. […] The cells were washed twice with SM, and the shape change of eosinophils was analyzed in the same manner as in Example 19.

[2] = target: T1, mutated human CRTH2 with amino acid substitution (Homo sapiens, UniProt Q9Y5Y4, I180A/M181A); assay: Epitope analysis using CHO-S cells which express mutated human CRTH2 with amino acid substitution; type: binding; conditions: mutant I180A and M181A; antibody 10 μg/mL; relative to wild-type = 100%
T1 construct: inserting genes encoding various mutants with amino acid substitution obtained by deleting termination codons; expressed in transfected cells; host or cells: CHO-S cells (Lifetechnologies), transient (phmAG1-MNLinker vector)
T1 sequence (Q9Y5Y4 1-395 I180A/M181A): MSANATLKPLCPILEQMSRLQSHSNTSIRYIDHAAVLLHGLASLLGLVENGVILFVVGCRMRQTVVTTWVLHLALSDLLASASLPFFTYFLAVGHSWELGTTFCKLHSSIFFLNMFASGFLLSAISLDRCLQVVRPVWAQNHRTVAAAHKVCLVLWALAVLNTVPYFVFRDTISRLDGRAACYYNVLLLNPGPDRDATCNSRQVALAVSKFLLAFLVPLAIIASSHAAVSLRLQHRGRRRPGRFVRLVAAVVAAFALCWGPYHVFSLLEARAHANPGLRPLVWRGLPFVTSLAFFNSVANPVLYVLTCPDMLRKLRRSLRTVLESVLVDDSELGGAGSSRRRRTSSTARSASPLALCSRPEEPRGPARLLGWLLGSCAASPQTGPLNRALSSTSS
Protocol: A mutant with amino acid substitution expression vector obtained by partially substituting amino acid residues in an extracellular region with other amino acid residues among the amino acid sequences of human CRTH2 was prepared. Specifically, mutant with amino acid substitution expression vectors obtained by substitution of S2A; N4A; T6A and L7A; K8A, P9A, and L10A; P12A, L14A, and EISA; Q16E, R19H, and Q21R; H23A, S24A, and N25A; T26A, S27A, and I28A; D171A, T172A, and I173A; S174A, R175A, and L176A; D177A, G178A, and R179A; 1180A and M181A; Y183A, Y184A, and N185A; L187A, L188A, and L189A; N190A; P191A; G192A; P193A; D194A; R195A; D196A, and T198A; N275A, G277A, and L278A; P276A; P279A and L281A; P280A; or V282A, R283A, and R284A in the amino acid sequences represented by SEQ ID NO: 2 were respectively prepared. It should be noted that the above symbols in the amino acid substitution indicate [single letter code of an amino acid residue before substitution] [substitution position counting from the N terminal] [single letter code of the amino acid reside after substitution].
Azami-Green tag was added to the intercellular C terminal region by inserting genes encoding various mutants with amino acid substitution obtained by deleting termination codons to the restriction enzyme sites of BamHI and HindIII using phmAG1-MNLinker (MBL) as expression vectors.
The above-described vectors expressing mutants with amino acid substitution were prepared using 1) a method of entirely synthesizing gene sequences encoding mutants with amino acid substitution and inserting the gene sequences into a vector or 2) a method of performing site-specific mutation from a vector into which DNA which encodes the amino acid sequences of wild-type human CRTH2 represented by SEQ ID NO: 1 was inserted.
CHO-S cells (Lifetechnologies) were used for preparing mutated human CRTH2 with amino acid substitution expressing cell lines. Free style CHO expression medium (Invitrogen) containing 8 mM L-Glutamine (Invitrogen) was used for subculturing cells and the cells were cultured by shaking under the conditions of 37° C. in the presence of 5% CO2.
25 μg of the mutated human CRTH2 with amino acid substitution expression vector prepared in (1) described above was dissolved in 400 μL of Opti-Pro SFM (Invitrogen) and 25 μL of a Freestyle MAX Reagent (Invitrogen) was dissolved in 400 μL of Opti-Pro SFM and each of them were allowed to stand at room temperature for 5 minutes. The two liquids were mixed with each other and allowed to stand at room temperature for 15 minutes. The mixed solution was added to the CHO-S culture solution and the cells were cultured for 24 hours, thereby obtaining cell lines which express mutated human CRTH2 with amino acid substitution.
The CHO-S cells which express mutated human CRTH2 with amino acid substitution established in (2) were washed with SM, seeded in a 96-well plate such that one well has 2×10^5 cells, and centrifuged at 1700 rpm for 2 minutes. After the supernatant was removed, chLym2, LV0HV1, the anti-human CRTH2 antibody hu19A2 v52, hu8B1 v1, ch3C12, or ch31A5 prepared in Example 9, or a commercially available anti-human CRTH2 antibody BM16 (Santa Cruz) prepared to have a concentration of 10 μg/mL using SM was added thereto to cause a reaction at 4° C. for 1 hour.
After the cells were washed, goat anti-Human IgG Alexa 647 (Molecular Probes) diluted with SM was added to wells to which chLym2, LV0HV1, hu19A2 v52, hu8B1 v1, ch3C12, or ch31A5 was added and goat anti-Rat IgG Alexa 647 (Molecular Probes) diluted with SM was added to wells to which BM16 was added at a final concentration of 10 μg/mL to cause a reaction at 4° C. for 1 hour.
After the reaction, the cells were washed and suspended with SM, and the fluorescent intensity was analyzed by flow cytometry (BD Biosciences, FACS CantoII). […]

B1: LV0HV1: humanized Lym2 antibody, VL LV0 (SEQ ID NO: 33), VH HV1 (SEQ ID NO: 51) (antibody, V domains shown)
VH: EVQLVESGGGVVQPGRSLRLSCAASGFTFSNYYMAWVRQAPGKGLEWVATISYDGSSTYYRDSVKGRFTISRDNAKNSLYLQMNSLRAEDTATYYCARHRGYYYSGAGYFDYWGQGTMVTVSS
VL: DIVMTQTPLSLPVTPGESASISCRSSQSLEYSDGYTYLEWYLQKPGQSPQVLIYGVSNRFSGVPDRFSGSGSGTDFTLKISRVEAEDVGVYYCFQATHDPLTFGQGTKLEIK
- effect on shape change of eosinophils induced by DKPGD2 ([1]; DKPGD2 100 nM): do not affect shape change
- shape change of eosinophils in the absence of a ligand (agonist activity) ([1]; no DKPGD2): do not affect shape change
- reactivity against cells expressing mutated human CRTH2 [2]: lost
